Article PMC12442453

Biological target: T1, human EPOR, endogenous on TF-1 cells (human (endogenous in TF-1)) (UniProt P19235)
T1 sequence: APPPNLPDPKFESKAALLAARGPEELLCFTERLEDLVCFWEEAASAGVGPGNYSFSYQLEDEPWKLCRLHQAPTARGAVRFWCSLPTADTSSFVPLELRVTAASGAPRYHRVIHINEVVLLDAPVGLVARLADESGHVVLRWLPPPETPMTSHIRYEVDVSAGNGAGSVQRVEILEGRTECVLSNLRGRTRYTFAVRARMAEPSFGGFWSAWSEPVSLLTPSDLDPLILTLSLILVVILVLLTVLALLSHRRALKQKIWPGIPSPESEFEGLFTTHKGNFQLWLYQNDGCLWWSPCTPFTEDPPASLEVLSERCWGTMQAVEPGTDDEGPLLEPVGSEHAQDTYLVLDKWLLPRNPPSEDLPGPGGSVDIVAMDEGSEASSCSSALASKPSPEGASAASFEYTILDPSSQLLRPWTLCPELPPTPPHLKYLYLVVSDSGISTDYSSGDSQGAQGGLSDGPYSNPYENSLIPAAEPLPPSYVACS

B1: Db-Fc 1.3 (Fc fusion)
VH: EVQLVESGGGLVQPGGSLRLSCAASGFNLRSYYMHWVRQAPGKGLEWVASISPHYGYTYYADSVKGRFTISADTSKNTAYLQMNSLRAEDTAVYYCARHGYSAMDYWGQGTLVTVSS
VL: DIQMTQSPSSLSASVGDRVTITCRASQSVSSAVAWYQQKPGKAPKLLIYSASSLYSGVPSRFSGSRSGTDFTLTISSLQPEDFATYYCQQSSDSLFTFGQGTKVEIK
  UT-7/Epo cell proliferation, EC50; Tb-Fc2 fraction of variant 1.3 (putative tetramer): 2 nM
  UT-7/Epo cell proliferation, maximum response; Tb-Fc2 fraction of variant 1.3 (putative tetramer): 2.2e+06 RLU
